The data set concerns the molecule itself. As to the kind of experiment: dynamic light scattering.

B1: LRS peptide N_(210-246):G214C (peptide)
peptide: MAGNCGDAALALLLLDRLNQLESKMSGKGQQQQGQTV
notes: also called N_(LRS, 210-246):G214C; G214C cysteine mutant LRS peptide
For the protein B1, the binding result is recorded as “binds”.

The record behind these values is publication PMC12753105, “Evolution of a fuzzy ribonucleoprotein complex in viral assembly” (eLife, 2025).
